Data taken from article PMC7859323.
“And” between values parts separate entries of the source, which are not always exact repeats. Identical values can stand only once.

Biological target: Gla domainless factor VIIa (human) (UniProt P08709)
Experiment: titration of enzyme activity (rate of FX activation by des Gla-FVIIa)

Sequence of UniProt P08709 (P08709 21-466, chain 1 of 2): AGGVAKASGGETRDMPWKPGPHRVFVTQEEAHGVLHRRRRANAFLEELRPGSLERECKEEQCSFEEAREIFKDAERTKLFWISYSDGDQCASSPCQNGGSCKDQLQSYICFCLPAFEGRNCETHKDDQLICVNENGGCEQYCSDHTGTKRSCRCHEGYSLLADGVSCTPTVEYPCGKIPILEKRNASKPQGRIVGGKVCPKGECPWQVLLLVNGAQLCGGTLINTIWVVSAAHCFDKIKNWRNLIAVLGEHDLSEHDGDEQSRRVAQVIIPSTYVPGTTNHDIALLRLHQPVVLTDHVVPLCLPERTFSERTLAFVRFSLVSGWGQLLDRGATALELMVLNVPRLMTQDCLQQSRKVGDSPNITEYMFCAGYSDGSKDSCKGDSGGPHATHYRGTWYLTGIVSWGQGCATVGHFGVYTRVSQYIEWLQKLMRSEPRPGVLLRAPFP
Sequence of UniProt P08709 (P08709 213-466, chain 2 of 2): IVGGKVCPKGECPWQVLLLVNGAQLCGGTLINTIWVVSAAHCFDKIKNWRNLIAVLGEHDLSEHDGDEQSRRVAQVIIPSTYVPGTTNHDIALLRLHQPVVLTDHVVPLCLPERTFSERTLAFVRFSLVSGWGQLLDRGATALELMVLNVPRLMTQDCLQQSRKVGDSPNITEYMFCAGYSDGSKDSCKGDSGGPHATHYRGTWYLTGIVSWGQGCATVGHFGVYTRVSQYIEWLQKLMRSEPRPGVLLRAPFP

## recombinant soluble tissue factor (from UniProt P13726 33-251) (domain or fragment)
  Kd: 5 nM and 2.7 nM
